# Measurements reported in patent US20240228595A1.
# Molecular target: SARS-COV-2 Omicron BA.1.1 spike on HIV-1 based pseudovirus (SARS-CoV-2 Omicron BA.1.1) (UniProt P0DTC2)
# Test: cell-based or functional assay
substance,measurement,value
S309 (Sotrovimab) (antibody),"pseudovirus neutralization, IC50",0.533 µg/mL
